Test results from patent EP4491230A1 (iOmx Therapeutics AG, dated 2025).

Molecular target: recombinant LILRA1 ECD (human, UniProt O75019 17-461)
Assay: BLI, IgG on AHC sensor, ECD as analyte

Sequence of recombinant LILRA1 ECD (O75019 17-461 limits assumed): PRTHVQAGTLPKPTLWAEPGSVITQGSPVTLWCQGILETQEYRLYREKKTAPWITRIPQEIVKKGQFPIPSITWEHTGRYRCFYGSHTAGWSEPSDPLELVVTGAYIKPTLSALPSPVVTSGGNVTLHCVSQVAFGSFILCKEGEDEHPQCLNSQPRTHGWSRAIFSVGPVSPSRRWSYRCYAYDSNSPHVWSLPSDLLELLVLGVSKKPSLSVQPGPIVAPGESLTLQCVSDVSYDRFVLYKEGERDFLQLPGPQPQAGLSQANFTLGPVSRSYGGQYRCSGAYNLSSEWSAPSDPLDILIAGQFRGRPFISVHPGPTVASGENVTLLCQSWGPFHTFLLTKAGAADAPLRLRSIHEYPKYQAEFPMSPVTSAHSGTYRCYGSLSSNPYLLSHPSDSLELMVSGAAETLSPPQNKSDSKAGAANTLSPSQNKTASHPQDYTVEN

B1: A-046 (antibody, V domains shown)
VH: QVQLVQSGAEVKKPGSSVKVSCKASGGSFQSYAINWVRQAPGQGLEWMGGIIPGFSTANYAQKFQGRVTITADESTSTAYMELSSLRSEDTAVYYCAKDLGTYSSGWPYYYGMDVWGQGTTVTVSS
VL: SYELTQPPSVSVSPGQTASITCSGDKLGDKYASWYQQKPGQSPVLVIYQDSKRPSGIPERFSGSNSGNTATLTISGTQAEDEADYYCQLTHLTIYVFGGGTKLTVL
notes: HC of A-015 and LC of A-036; Tested as IgG
binding result: no binding (tested: 900 nM of LILRA1 ECD)
